Substrate in data set [1]: N[C@@H](CC[PH](=O)O)C(=O)O
Briefly: purified protein. It is filed as biochemical, Escherichia coli. The note with it: 0.1 M Pyridine/HCl, pH 4.6, 0.1 mM DTT, 40 µM PLP, discontinuous assay.

Substrate in data set [2]: N[C@@H](CCC(=O)O)C(=O)O
Briefly: purified protein. It is filed as biochemical, Escherichia coli. The conditions noted are these: 0.1 M Pyridine/HCl, pH 4.6, 0.1 mM DTT, 40 µM PLP, discontinuous assay.

B1: EcGadB (Escherichia coli K-12) (protein)
chain: MDKKQVTDLRSELLDSRFGAKSISTIAESKRFPLHEMRDDVAFQIINDELYLDGNARQNLATFCQTWDDENVHKLMDLSINKNWIDKEEYPQSAAIDLRCVNMVADLWHAPAPKNGQAVGTNTIGSSEACMLGGMAMKWRWRKRMEAAGKPTDKPNLVCGPVQICWHKFARYWDVELREIPMRPGQLFMDPKRMIEACDENTIGVVPTFGVTYTGNYEFPQPLHDALDKFQADTGIDIDMHIDAASGGFLAPFVAPDIVWDFRLPRVKSISASGHKFGLAPLGCGWVIWRDEEALPQELVFNVDYLGGQIGTFAINFSRPAGQVIAQYYEFLRLGREGYTKVQNASYQVAAYLADEIAKLGPYEFICTGRPDEGIPAVCFKLKDGEDPGYTLYDLSERLRLRGWQVPAFTLGGEATDIVVMRIMCRRGFEMDFAELLLEDYKASLKYLSDHPKLQGIAQQNSFKHT
notes: expressed and purified EcGadB (DEAE chromatography); no tag stated; PLP-dependent homohexamer; EC 4.1.1.15
As a reminder, the Km is the substrate concentration at which the rate is half of its maximum. As a reminder, the kcat is the number of substrate molecules converted per active site and unit of time at saturation. In general, kcat/Km refers to the second-order rate constant that governs catalysis at low substrate concentration. Regarding B1, in the data set “purified protein [1]”, the Km is 39.82 ± 5.66 mM, the kcat was found to be 13.9 ± 0.58 s⁻¹ and the specificity constant (kcat/Km) was 350 ± 50 M⁻¹ s⁻¹. In addition, in the data set “purified protein [2]”, the Michaelis constant (Km) was 0.84 ± 0.09 mM, the kcat is 78.2 ± 2.06 s⁻¹ and the catalytic efficiency (kcat/Km) was found to be 92800 ± 10300 M⁻¹ s⁻¹.

Source of the values: PMC9814759, “Enzymatic kinetic resolution of desmethylphosphinothricin indicates that phosphinic group is a bioisostere of carboxyl group” (Communications Chemistry, 2020).
